Reference: US20020164609A1 (SCHERING, published 2002)

T1: Flag-tagged human WSX-1/TCCR on Ba/F3 cells (F-hWSX-1) (human, UniProt Q6UWB1 33-636)
T1 construct: Retroviral pMX construct expressed on the surface of Ba/F3 cells; also called hNR30; F-tagged WSX-1/TCCR
T1 sequence: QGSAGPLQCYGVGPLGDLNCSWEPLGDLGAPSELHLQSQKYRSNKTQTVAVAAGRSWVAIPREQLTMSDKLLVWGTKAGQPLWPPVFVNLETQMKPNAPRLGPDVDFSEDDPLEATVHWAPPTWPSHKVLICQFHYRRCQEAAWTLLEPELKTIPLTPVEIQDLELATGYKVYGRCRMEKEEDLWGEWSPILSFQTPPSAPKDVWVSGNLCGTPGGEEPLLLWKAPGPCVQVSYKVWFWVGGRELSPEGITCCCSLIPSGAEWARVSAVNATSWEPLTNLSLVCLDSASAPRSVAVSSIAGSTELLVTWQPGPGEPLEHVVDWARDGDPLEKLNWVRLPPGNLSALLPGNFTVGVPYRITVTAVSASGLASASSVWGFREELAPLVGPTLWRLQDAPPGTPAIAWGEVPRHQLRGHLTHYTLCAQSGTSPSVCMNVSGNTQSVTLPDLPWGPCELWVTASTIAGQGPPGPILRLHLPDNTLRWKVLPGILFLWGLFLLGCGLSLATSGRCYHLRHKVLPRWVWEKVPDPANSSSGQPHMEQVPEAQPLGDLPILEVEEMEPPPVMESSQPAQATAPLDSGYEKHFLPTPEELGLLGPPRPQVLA

T2: soluble human WSX-1/TCCR with C-terminal RGSH6 tag (shWSX-1-R) (human, UniProt Q6UWB1 33-516)
T2 construct: Produced in HEK293T supernatants; also called shNR30R; soluble hWSX-1-R
T2 sequence: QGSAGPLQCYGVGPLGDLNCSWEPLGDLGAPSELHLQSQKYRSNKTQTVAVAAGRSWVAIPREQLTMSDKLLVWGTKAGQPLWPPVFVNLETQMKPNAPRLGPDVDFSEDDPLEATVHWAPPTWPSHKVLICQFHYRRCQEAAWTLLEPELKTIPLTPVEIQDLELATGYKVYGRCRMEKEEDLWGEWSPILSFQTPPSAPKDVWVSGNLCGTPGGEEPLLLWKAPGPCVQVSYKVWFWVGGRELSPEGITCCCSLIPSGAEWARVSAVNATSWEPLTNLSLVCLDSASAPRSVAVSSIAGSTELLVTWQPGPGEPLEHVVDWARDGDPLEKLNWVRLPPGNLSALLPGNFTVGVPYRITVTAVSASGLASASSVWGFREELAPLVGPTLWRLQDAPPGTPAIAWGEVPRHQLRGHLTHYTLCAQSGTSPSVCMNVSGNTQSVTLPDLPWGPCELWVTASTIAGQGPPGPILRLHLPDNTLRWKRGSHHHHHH

T3: Flag-tagged mouse WSX-1 on BaF3 cells (F-mWSX-1) (mouse, UniProt O70394 25-623)
T3 construct: whole, on cells; Retroviral pMX construct expressed on the surface of Ba/F3 cells
T3 sequence (looked up): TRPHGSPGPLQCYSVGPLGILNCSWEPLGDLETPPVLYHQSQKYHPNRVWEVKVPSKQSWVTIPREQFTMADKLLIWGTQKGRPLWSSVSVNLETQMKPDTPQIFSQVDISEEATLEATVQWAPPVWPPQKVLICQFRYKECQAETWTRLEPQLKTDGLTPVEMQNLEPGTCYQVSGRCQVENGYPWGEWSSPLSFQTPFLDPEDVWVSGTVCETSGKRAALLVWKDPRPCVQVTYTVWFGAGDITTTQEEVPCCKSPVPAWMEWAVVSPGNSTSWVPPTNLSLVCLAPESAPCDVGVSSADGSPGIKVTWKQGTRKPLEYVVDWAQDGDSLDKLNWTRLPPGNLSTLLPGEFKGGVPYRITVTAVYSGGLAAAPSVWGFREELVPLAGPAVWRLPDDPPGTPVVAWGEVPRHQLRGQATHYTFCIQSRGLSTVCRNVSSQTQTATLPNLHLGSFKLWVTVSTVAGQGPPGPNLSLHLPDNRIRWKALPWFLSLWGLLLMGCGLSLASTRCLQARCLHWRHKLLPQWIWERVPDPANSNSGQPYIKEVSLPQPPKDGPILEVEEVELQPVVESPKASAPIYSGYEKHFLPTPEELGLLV

B1: human EBI3-Ig fusion (hEBI3-Ig) (Fc fusion)
chain: RKGPPAALTLPRVQCRASRYPIAVDCSWTLPPAPNSTSPVSFIATYRLGMAARGHSWPCLQQTPTSTSCTITDVQLFSMAPYVLNVTAVHPWGSSSSFVPFITEHIIKPDPPEGVRLSPLAERHVQVQWEPPGSWPFPEIFSLKYWIRYKRQGAARFHRVGPIEATSFILRAVRPRARYYVQVAAQDLTDYGELSDWSLPATATMSLGK
notes: Secreted fusion protein; also called EB133-Ig (so in the source); not shown: Ig part from the pME18S-Ig vector
B2: Flag-tagged human EBI3 (F-hEBI3) (other)
chain: RKGPPAALTLPRVQCRASRYPIAVDCSWTLPPAPNSTSPVSFIATYRLGMAARGHSWPCLQQTPTSTSCTITDVQLFSMAPYVLNVTAVHPWGSSSSFVPFITEHIIKPDPPEGVRLSPLAERHVQVQWEPPGSWPFPEIFSLKYWIRYKRQGAARFHRVGPIEATSFILRAVRPRARYYVQVAAQDLTDYGELSDWSLPATATMSLGK
notes: Mature portion of human EBI3 cloned into pFlagCMV-1, produced in HEK293T cells; also called human Epstein-Barr virus-induced gene 3; not shown: N-terminal Flag tag from pFlagCMV-1
B3: mouse EBI3-Ig fusion (mEBI3-Ig) (Fc fusion, UniProt O35228 19-228, looked up)
chain: YTETALVALSQPRVQCHASRYPVAVDCSWTPLQAPNSTRSTSFIATYRLGVATQQQSQPCLQRSPQASRCTIPDVHLFSTVPYMLNVTAVHPGGASSSLLAFVAERIIKPDPPEGVRLRTAGQRLQVLWHPPASWPFPDIFSLKYRLRYRRRGASHFRQVGPIEATTFTLRNSKPHAKYCIQVSAQDLTDYGKPSDWSLPGQVESAPHKP
notes: mature; Secreted fusion protein; not shown: Ig part from the pME18S-Ig vector
B4: E-tagged mouse IL-D80 (mIL-D80-E) (ligand)
chain: FPTDPLSLQELRREFTVSLYLARKLLSEVQGYVHSFAESRLPGVNLDLLPLGYHLPNVSLTFQAWHHLSDSERLCFLATTLRPFPAMLGGLGTQGTWTSSEREQLWAMRLDLRDLHRHLRFQVLAAGFKCSKEEEDKEEEEEEEEEEKKLPLGALGGPNQVSSQVSWPQLLYTYQLLHSLELVLSRAVRDLLLLSLPRRPGSAWDS
notes: also called mp28-E; mouse p28; not shown: E-tag from the pCDM8-etag vector

Legend:
[1] = biological target: T1, Flag-tagged human WSX-1/TCCR on Ba/F3 …; assay: flow cytometry on BaF3 cells expressing F-hWSX-1, two hours incubation
[2] = biological target: T2, soluble human WSX-1/TCCR with …; assay: co-immunoprecipitation and western blot; F-hEBI3 alone against shWSX-1-R supernatant
Method: The primary pricipitates were washed and then incubated with HEK293T cell supernatants containing shWSX-1-R. Secondary precipitates were separated by SDS-PAGE and subjected to western blot. Precipitaited proteins were visualized by ECL using antibodies against the respective protein tags.

[3] = biological target: T3, Flag-tagged mouse WSX-1 on BaF3 cells …; assay: flow cytometry on mWSX-1-expressing BaF3 cells

Binder	binding result [3]	also measured
B1		binding result [1]: no binding
B2		binding result [2]: no binding
B3	no binding	
B4	no binding	
